Experiment [1] deals with human PDGF-B (c-sis) (human) (UniProt P01127). Description: cell-based or functional assay.
Experiment [2] concerns the target wildtype murine PDGF A chain (murine) (UniProt P20033). The experiment is described as follows: cell-based or functional assay.

Chain of human PDGF-B (c-sis) (human) (P01127 82-190 limits assumed): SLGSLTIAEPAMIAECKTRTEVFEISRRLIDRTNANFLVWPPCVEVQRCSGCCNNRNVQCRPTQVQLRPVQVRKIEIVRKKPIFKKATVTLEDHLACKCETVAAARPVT

“PDGF A dominant negative mutant 1308 (murine PDGF A chain with the third cysteine residue changed to serine) (from UniProt P20033 87-196) (ligand)” yielded a growth of PDGF-B (c-sis) transformed Balb/c 3T3 sublines in PPP-supplemented medium in experiment [1] of 90 % inhibition. The substance also showed a growth of PDGF-A transformed Balb/c 3T3 sublines in PPP-supplemented medium (% suppression) in experiment [2] of 70.

These data come from patent US6475781.
